Laboratory results as given in patent US20210355235A1 (YALE UNIVERSITY, published 2021).

Molecular target: T1, human renalase-1 (Homo sapiens, UniProt Q5VYX0 18-342, limits assumed)
T1 construct: Whole entry named for renalase-1 (Glu at position 37); also called R1; HuRenalase-1
Experiment: SPR, Biacore T100; biotinylated antibody captured on streptavidin chip, renalase-1 in solution
Description: Binding studies were performed using a Biacore T100. Binding studies were performed at 25° C. using 25 mM Tris pH 8, 150 mM NaCl, 1 mM EDTA, 10% glycerol, 0.005% Tween-20 and 0.1 mg/mL BSA as the running buffer. The biotinylated antibodies were captured on individual streptavidin sensor chip flow cells as shown below. Because the study took two sensor chips, the analysis of two of the mAbs on the second sensor chip was repeated to gather more data. Renalase-1 was tested at 50 nM as the highest concentration in a three-fold dilution series. Each of 5 concentrations was tested in duplicate. Bound complexes were regenerated with a short pulse of 1/1000 phosphoric acid.

T1 sequence (Q5VYX0 18-342 limits assumed): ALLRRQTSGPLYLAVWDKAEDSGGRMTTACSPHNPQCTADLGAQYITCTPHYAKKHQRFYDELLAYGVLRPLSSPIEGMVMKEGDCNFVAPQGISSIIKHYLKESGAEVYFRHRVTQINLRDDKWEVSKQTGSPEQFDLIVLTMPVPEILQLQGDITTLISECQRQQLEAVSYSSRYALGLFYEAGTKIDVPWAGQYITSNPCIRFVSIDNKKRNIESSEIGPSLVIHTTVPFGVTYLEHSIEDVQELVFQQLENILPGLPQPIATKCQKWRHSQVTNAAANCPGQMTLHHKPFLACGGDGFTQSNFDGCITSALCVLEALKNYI

Binder | Kd | koff | kon
anti-renalase monoclonal antibody 1D-37-10 (antibody, V domains shown, Rabbit monoclonal IgG raised against peptide 1D (RP-220); Biotinylated in the Biacore study; also called m37-RNLS; Bio-1D 37-10) VH: QSVEESGGRLVTPGGSLTLTCTVSGFSLSDYAIIWVRQAPGKGLEYIAIIGSSGDTFYATWAKGRFTISKTSTTVDLKMTSLTAADTATYFCAPRYAGTTDYHDAFDPWGPGTLVTVSS VL: EVVMTQTPASMEAPMGGTVTIKCQASQNIYNYLSWYQQKPGQPPKLLVYKASTLTSGVPSRFKGSGSGTQFTLTISDLECADAATYYCQINYSIYNHYNIIFGGGTEVVVKG | 2.67 nM | 4.67e-05 s⁻¹ | 17500 M⁻¹ s⁻¹
anti-renalase monoclonal antibody 1F-26-1 (antibody, V domains shown, Rabbit monoclonal IgG raised against peptide 1F; Biotinylated in the Biacore study; also called Bio-1F 26-1) VH: QSVKESEGGLFKPTDTLTLTCTVSGFSLSSYGVTWVRQAPGNGLEWIGLIGDRGTTFYASWAKSRSTITRNTNLNTVTLKMTRLTAADTATYFCARGSGYGARIWGPGTLVTVSS VL: AQVLTQTPSPVSAAVGGTVTINCQSSQSVYKNNYLAWYQQKPGQPPKLLIYETSKLASGVPPRFSGSGSGTQFTLTISSVQCDDAATYYCQGGYSGVDFMAFGGGTEVVVKG | 2.25 nM | 0.000102 s⁻¹ | 45300 M⁻¹ s⁻¹
anti-renalase monoclonal antibody 1F-42-7 (antibody, V domains shown, Rabbit monoclonal IgG raised against peptide 1F; Biotinylated in the Biacore study; also called Bio-1F 42-7) VH: QSVKESEGGLFKPTDTLTLTCTVSGFSLTTYGVTWVRQAPGNGLEWIGLIGDRGTTYYASWVNGRSTITRNTNLNTVTLKMTRLTAADTATYFCARGSGYGARIWGPGTLVTVAS VL: AQVLTQTPSPMSAALGGTVTINCQSSQTVYNNNYLSWYQQKPGQPPKLLIYETSKLSSGVPPRFSGSGSGTQFTLTISSVQCDDAATYYCQGGYSGVDFMAFGGGTEVVVKG | 2.41 nM | 9.47e-05 s⁻¹ | 39300 M⁻¹ s⁻¹
anti-renalase monoclonal antibody 1D-28-4 (antibody, V domains shown, Rabbit monoclonal IgG raised against peptide 1D (RP-220); also called m28-RNLS; Bio-1D 28-4) VH: QSVEESGGRLVTPGTPLTLTCTVSGFSLSSFAVGWVRQAPGKGLEYIGIISSVGITRYASWAAGRFTISKTSTTVDLKITSPTTEDTATYFCARYGYSGDVNRLDLWGQGTLVTVSS VL: AQVLTQTASPVSAAVGGTVTINCQASQSVYDNNNLAWYQQKPGQPPKQLIYGASTLASGVSSRFKGSGSGTQFTLTISGVQCDDAATYYCLGEFSCSSADCFAFGGGTEVVVKG | 0.316 nM | 2.04e-05 s⁻¹ | 64700 M⁻¹ s⁻¹
